# Patent US20210371455A1, “METHODS AND COMPOSITIONS COMPRISING REDUCED LEVEL OF HOST CELL PROTEINS” (Regeneron Pharmaceuticals, Inc., priority 2019, published 2021)
# B1: LAL: lysosomal acid lipase encoded by the LIPA gene; recombinant, overexpressed in CHO cell (protein, UniProt P38571 77-399, looked up)
# Lysosomal acid …: GPKPVVFLQHGLLADSSNWVTNLANSSLGFILADAGFDVWMGNSRGNTWSRKHKTLSVSQDEFWAFSYDEMAKYDLPASINFILNKTGQEQVYYVGHSQGTTIGFIAFSQIPELAKRIKMFFALGPVASVAFCTSPMAKLGRLPDHLIKDLFGDKEFLPQSAFLKWLGTHVCTHVILKELCGNLCFLLCGFNERNLNMSRVDVYTTHSPAGTSVQNMLHWSQAVKFQKFQAFDWGSSAKNYFHYNQSYPPTYNVKDMLVPTAVWSGGHDWLADVYDVNILLTQITNLVFHESIPEWEHLDFIWGLDAPWRLYNKIINLMRKYQ
# B2: SIAE: recombinant sialate O-acetylesterase, host cell protein overexpressed and purified in CHO (protein)
# chain: MVSLGSVFGLLLLLIIVRASRSAGIDFRFGSYIDNYMVLQKEPSGAVIWGFGTPGATVTVTLCQGQNTFKKKVTTVKAHSNTWVVVLDPMKPGGPYEVMAKQTFGITNVTLRIHDILFGDVWLCSGQSNMKMTVLQIFNASKELAVAAAYQSVRIFSASLVQAEEELEDLDKVDLSWSRPTAGNLGNGNYTYMSAVCWLFGRYLYDNLQYPIGLVSSSWGGTPIEAWSSKRALKSCGVPNTSNERILQTTRSECKSEGSLCPLGSFTLPPSVTGPATHSVLWNAMIHPLQKMTLKGVIWYQGESNEDLNRDLYSCMFPALIDDWRQTFHDGSQKQTERFFPFGFVQLSSYAETNTSDYRFPEIRWHQTADFGFVPNLKMPNTFMAVAMDLCDLNSPFGSIHPRDKQTVAYRLHLGARALAYGEKNLAFQGPLPKKIELLAHSRLLSLTYDQKIQVHRQDNKSFEISCCSDRLCKWLPVSVNSFSTKTLILGISACRGTVVDVRYAWTTWPCDYKQCAVYHPSNTLPAPPFTAPITYQAPRFRASDSSTQE
# B3: human PLBD2: recombinant human putative phospholipase B-like 2 purchased from Origene (protein)
# chain: IPAPGGRWARDGQVPPASRSRSVLLDVSAGQLLMVDGRHPDAVAWANLTNAIRETGWAFLELGTSGQYNDSLQAYAAGVVEAAVSEELIYMHWMNTVVNYCGPFEYEVGYCERLKSFLEANLEWMQEEMESNPDSPYWHQVRLTLLQLKGLEDSYEGRVSFPAGKFTIKPLGFLLLQLSGDLEDLELALNKTKIKPSLGSGSCSALIKLLPGQSDLLVAHNTWNNYQHMLRVIKKYWLQFREGPWGDYPLVPGNKLVFSSYPGTIFSCDDFYILGSGLVTLETTIGNKNPALWKYVRPRGCVLEWVRNIVANRLASDGATWADIFKRFNSGTYNNQWMIVDYKAFIPGGPSPGSRVLTILEQIPGMVVVADKTSELYQKTYWASYNIPSFETVFNASGLQALVAQYGDWFSYDGSPRAQIFRRNQSLVQDMDSMVRLMRYNDFLHDPLSLCKACNPQPNGENAISARSDLNPANGSYPFQALRQRSHGGIDVKVTSMSLARILSLLAASGPTWDQVPPFQWSTSPFSGLLHMGQPDLWKFAPVKVSWD
# Experiments:
# Assay type in all cases: biochemical
# PS80 degradation by LAL = conditions: LAL 10 ppm and 20 ppm, 5 days at 45° C.
# From the text: LAL has an ability to hydrolyze primary and higher order esters.
# [1] = PS20 incubated with LAL and SIAE (CAD profile); conditions: 0.2% PS20 with 10 ppm LAL and 10 ppm SIAE together, after 5 days
# Experimental: To examine the effect of both SIAE and LAL on PS20, 10 ppm of LAL and 10 ppm of SIAE were incubated with a solution comprising 0.2% PS20. Polysorbate in formulated mAbs were detected and identified as shown in Example 1.
# [2] = PS20 degradation by recombinant SIAE (2D-LC-CAD)
# Experimental: Two-Dimensional Liquid Chromatography-Charged Aerosol detector (CAD)/Mass Spectrometry (MS) Assay to Detect Polysorbate Degradation. Degradation of PS20 and PS80 in CHO cell-free media or formulated antibody were analyzed by two-dimensional HPLC-CAD/MS system. The details of the setup were previously described by Genentech (Yi Li et al., Characterization and Stability Study of Polysorbate 20 in Therapeutic Monoclonal Antibody Formulation by Multidimensional Ultrahigh-Performance Liquid Chromatography-Charged Aerosol Detection-Mass Spectrometry, 86 ANALYTICAL CHEMISTRY 5150-5157 (2014)). […]
# The 2D-LC system was set up with Thermo UltiMate 3000 and coupled with Corona Ultra CAD detector. Operating at nitrogen pressure of 75 psi for quantitation. […]
# (§1) Peak area of each ester was obtained from the CAD detector and added up to account for intact PS20 or PS80. The remaining percentage of PS20 or PS80 used in this work was calculated by comparing sum of the peak area of monoester eluting between 27.5 min and 33 min at each time point to sum of peak areas at time zero. Relative percent of different order ester or total esters can be calculated similarly.
# Hydrolysis of Polysorbate 20 with Sialate O-acetylesterase (SIAE) and Formulated Antibody. […] The influence of pH on the rate of PS20 degradation was determined by evaluating activity at 5.3, 6.0 and 8.0 in acetate, histidine and citrate buffer system.
# [3] = PS80 degradation by spiked-in recombinant SIAE (2D-LC-CAD); conditions: 0.1% PS80, SIAE 50 ppm, 5 days at 45° C.
# Experimental: Two-Dimensional Liquid Chromatography-Charged Aerosol detector (CAD)/Mass Spectrometry (MS) Assay to Detect Polysorbate Degradation. Degradation of PS20 and PS80 in CHO cell-free media or formulated antibody were analyzed by two-dimensional HPLC-CAD/MS system. The details of the setup were previously described by Genentech (Yi Li et al., Characterization and Stability Study of Polysorbate 20 in Therapeutic Monoclonal Antibody Formulation by Multidimensional Ultrahigh-Performance Liquid Chromatography-Charged Aerosol Detection-Mass Spectrometry, 86 ANALYTICAL CHEMISTRY 5150-5157 (2014)). Polysorbates were separated from formulated mAb by using Oasis MAX column (20 mm×2.1 mm, 30 μm, Waters, Milford, Mass., U.S.A.). Initial condition was set at 1% solvent B (0.1% formic acid in acetonitrile) and held for 1 min. It was increased to 20% in 1.5 minutes and dropped back down to 1% in 1.5 minutes. […]
# as §1
# [4] = PS20 degradation by human PLBD2 and CHO PLBD2; conditions: PLBD2 200 μg/mL, 0.1% PS20, 45° C., 5 days
# Experimental: (§2) Hydrolysis of Polysorbate 20 and PS80 with Putative Phospholipase B-like 2 (PLBD2) and Formulated Antibody. To evaluate the effect of PLBD2 on PS20 and PS80 degradation, 16 μL of 10 mM Histidine buffer pH 6.0 was mixed with 2 μL of 1% PS20 or 1% PS80, followed by adding 2 μL of […] PLBD2 and incubating the sample at 45° C. for 5 days. One aliquot (3 μL) of each sample was diluted twenty-five time by adding 72 μL 10 mM histidine, pH 6.0 and used for LC-CAD analysis.
# (§3) Polysorbates degradation by recombinant human PLBD2 and in-house CHO PLBD2 was monitored as outlined in the Material and Methods section. Recombinant human PLBD2 and in-house CHO PLBD2 with concentration at 200 μg/mL were incubated with 0.1% of PS20 and PS80 for 5 days. […] By incubating PS20 with OriGene human PLBD2, a decrease in signal intensity occurred on POE-ester peaks eluting at between 27.5 and 38 minutes. The peaks eluted before 34 minutes were POE monoester containing short fatty acid chain, for example, POE sorbitan monolaurate, POE isosorbide monolaurate, POE sorbitan monomyristate and POE isosorbide monomyristate. […] Instead, because both PLBD2 proteins contain a high level of impurities, it is more likely that the difference in esterase activity originated from some unknown HCP impurities other than from PLBD2 itself.
# [5] = PS80 degradation by human PLBD2 and CHO PLBD2; conditions: PLBD2 200 μg/mL, 0.1% PS80, 45° C., 5 days; peaks eluting between 30 and 35 minutes
# Experimental: as §2, §3
Molecule,PS80 degradation (PS80 degradation by LAL),PS20 ester species degradation [1],"PS20 degradation ([2]; 0.1% PS20, SIAE 2.5 ppm, 45° C., 10 mM Histidine pH 6, 10-day incubation)","pH effect on PS20 degradation by SIAE ([2]; SIAE directly incubated with PS20 in buffers pH 8.0, 6.0, 5.3)",PS80 degradation [3],PS20 degradation [4],PS80 degradation [5]
B1,significant degradation of monoesters only,all ester species degraded,,,,,
B2,,all ester species degraded,Significant PS20 degradation,maximum degradation at pH 6.0,did not show any degradation,,
B3,,,,,,Significant PS20 degradation,significant degradation
